Experimental data as given in patent US20250122306A1 (SUTRO BIOPHARMA, published 2025).
Positions count from the first letter of the chain named.

T1: cynomolgus tissue factor (cynomolgus TF, Sino Bio #90885-C08H) (cynomolgus monkey, UniProt P13726 33-251 (human entry))
T1 construct: bought recombinant antigen; also called cyno TF
T1 chain: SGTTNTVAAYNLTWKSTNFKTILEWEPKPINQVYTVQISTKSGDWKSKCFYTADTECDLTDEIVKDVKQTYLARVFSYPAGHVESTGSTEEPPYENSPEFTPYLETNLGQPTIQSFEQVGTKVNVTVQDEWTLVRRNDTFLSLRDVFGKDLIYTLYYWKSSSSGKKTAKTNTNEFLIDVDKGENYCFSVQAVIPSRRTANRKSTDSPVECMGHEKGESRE

B1: SRP2900-A02 (antibody, IgG1, V domains shown)
VH: MEVQLVESGGGLVQPGGSLRLSCAASGFTISGYIIHWVRQAPGKGLEWVGYIDPSNGYTYYADSVKGRFTISADTSKNTAYLQMNSLRAEDTAVYYCARDDQSLSSPFDYWGQGTLVTVSS
VL: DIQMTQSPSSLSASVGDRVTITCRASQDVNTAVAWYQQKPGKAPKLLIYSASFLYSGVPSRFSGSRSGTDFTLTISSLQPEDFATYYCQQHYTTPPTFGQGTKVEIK
B2: SRP2900-F06 (antibody, IgG1, V domains shown)
VH: EVQLVESGGGLVQPGGSLRLSCAASGFTISIYTIHWVRQAPGKGLEWVGYIDPSNGYTYYADSVKGRLTISADTSKNTAYLQMNSLRAEDTAVYYCARDPQSISSPFDYWGQGTLVTVSS
VL: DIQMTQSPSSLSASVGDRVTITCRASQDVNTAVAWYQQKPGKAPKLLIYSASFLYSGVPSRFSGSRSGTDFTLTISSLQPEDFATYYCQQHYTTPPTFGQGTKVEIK
B3: SRP2900-E02 (antibody, IgG1, V domains shown)
VH: B2 VH with I31D, T33V, S63P, L68F, I103F, S104Y, S105I, P106A
VL: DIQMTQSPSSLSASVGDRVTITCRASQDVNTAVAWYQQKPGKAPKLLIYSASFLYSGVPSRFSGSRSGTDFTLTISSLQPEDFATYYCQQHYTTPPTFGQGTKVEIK
B4: SRP2900-F02 (antibody, IgG1, V domains shown)
VH: B2 VH with S21A, S30G, I31V, T33I, L68F, P100D, I103V
VL: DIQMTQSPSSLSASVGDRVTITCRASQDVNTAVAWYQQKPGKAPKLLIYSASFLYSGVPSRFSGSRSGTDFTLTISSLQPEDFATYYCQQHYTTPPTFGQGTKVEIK
B5: SRP2900-F11 (antibody, IgG1, V domains shown)
VH: B2 VH with I31G, T33I, Y59F, L68F, Q82R, P100D, I103L
VL: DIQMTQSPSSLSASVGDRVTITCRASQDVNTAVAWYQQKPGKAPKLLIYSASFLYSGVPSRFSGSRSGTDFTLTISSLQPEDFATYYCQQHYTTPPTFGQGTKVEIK
B6: SRP2900-F08 (antibody, IgG1, V domains shown)
VH: B2 VH with S30A, I31Y, T33I, L68F, P100D, I103L
VL: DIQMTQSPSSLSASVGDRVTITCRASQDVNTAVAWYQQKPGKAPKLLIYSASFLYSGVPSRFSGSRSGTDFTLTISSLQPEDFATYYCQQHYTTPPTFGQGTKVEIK
B7: SRP2900-E06 (antibody, IgG1, V domains shown)
VH: B2 VH with I31G, T33I, Y60H, L68F, P100D, I103V
VL: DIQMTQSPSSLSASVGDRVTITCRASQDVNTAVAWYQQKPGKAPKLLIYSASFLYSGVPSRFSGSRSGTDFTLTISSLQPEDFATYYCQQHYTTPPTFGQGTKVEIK
B8: SRP2900-E07 (antibody, IgG1, V domains shown)
VH: EVQLVESGGGLVQPGGSLRLSCAASGFTISQYWIHWVRQAPGKGLEWVGYIDPYNGYTYYADSVKGRFTISADTSKNTAYLQMNSLRAEDTAVYYCARDYGSLRVSLDYWGQGTLVTVSS
VL: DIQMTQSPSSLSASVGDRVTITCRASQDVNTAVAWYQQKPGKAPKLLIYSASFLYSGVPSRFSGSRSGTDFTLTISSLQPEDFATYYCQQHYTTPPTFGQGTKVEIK
B9: SRP2900-F09 (antibody, IgG1, V domains shown)
VH: B2 VH with S30H, I31D, T33V, L68F, P100D, F107L
VL: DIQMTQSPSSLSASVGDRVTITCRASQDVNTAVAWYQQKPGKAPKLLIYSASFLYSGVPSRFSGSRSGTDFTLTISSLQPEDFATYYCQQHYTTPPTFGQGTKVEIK
B10: SRP2900-G02 (antibody, IgG1, V domains shown)
VH: B2 VH with G10D, Q13R, I31Y, T33I, L68F, P100D, I103V, D108E
VL: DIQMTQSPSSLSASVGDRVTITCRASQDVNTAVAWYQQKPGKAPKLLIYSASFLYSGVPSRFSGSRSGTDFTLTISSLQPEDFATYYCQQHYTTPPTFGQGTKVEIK
B11: SRP2900-G03 (antibody, IgG1, V domains shown)
VH: B2 VH with S30N, I31N, T33I, L68F, I103L
VL: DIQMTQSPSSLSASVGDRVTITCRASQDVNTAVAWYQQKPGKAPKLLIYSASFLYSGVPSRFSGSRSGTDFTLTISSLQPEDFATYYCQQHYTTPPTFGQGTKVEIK
B12: SRP2900-C11 (antibody, IgG1, V domains shown)
VH: B8 VH with L103W, V105I, S106R
VL: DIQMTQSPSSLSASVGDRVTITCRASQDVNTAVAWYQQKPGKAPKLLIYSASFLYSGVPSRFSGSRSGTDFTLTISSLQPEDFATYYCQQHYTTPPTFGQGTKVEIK
B13: SRP2900-C01 (antibody, IgG1, V domains shown)
VH: EVQLVESGGGLVQPGGSLRLSCAASGFTIGSYWIHWVRQAPGKGLEWVGYIDPSNGYTYYADSVKGRFTISADTSKNTAYLQMNSLRAEDTAVYYCARADYYYVDEYWDYWGQGTLVTVSS
VL: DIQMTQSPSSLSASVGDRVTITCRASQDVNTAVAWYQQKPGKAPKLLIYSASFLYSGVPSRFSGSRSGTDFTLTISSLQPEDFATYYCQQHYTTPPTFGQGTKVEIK
B14: Conjugate 3: 2900-A02 Y180/F404/k42-LP1 (antibody, human IgG1, kappa)
heavy: MEVQLVESGGGLVQPGGSLRLSCAASGFTISGYIIHWVRQAPGKGLEWVGYIDPSNGYTYYADSVKGRFTISADTSKNTAYLQMNSLRAEDTAVYYCARDDQSLSSPFDYWGQGTLVTVSSASTKGPSVFPLAPSSKSTSGGTAALGCLVKDYFPEPVTVSWNSGALTSGVHTFPAVLQSSGLSLSSVVTVPSSSLGTQTYICNVNHKPSNTKVDKKVEPKSCDKTHTCPPCPAPELLGGPSVFLFPPKPKDTLMISRTPEVTCVVVDVSHEDPEVKFNWYVDGVEVHNAKTKPREEQYNSTYRVVSVLTVLHQDWLNGKEYKCKVSNKALPAPIEKTISKAKGQPREPQVYTLPPSREEMTKNQVSLTCLVKGFYPSDIAVEWESNGQPENNYKTTPPVLDSDGSFLYSKLTVDKSRWQQGNVFSCSVMHEALHNHYTQKSLSLSPGK
light: MDIQMTQSPSSLSASVGDRVTITCRASQDVNTAVAWYQQKPGAPKLLIYSASFLYSGVPSRFSGSRSGTDFTLTISSLQPEDFATYYCQQHYTTPPTFGQGTKVEIKRTVAAPSVFIFPPSDEQLKSGTASVVCLLNNFYPREAKVQWKVDNALQSGNSQESVTEQDSKDSTYSLSSTLTLSKADYEKHKVYACEVTHQGLSSPVTKSFNRGEC
modifications: pAMF at K42 linked to LP1; pAMF at Y180 and F404 (EU), each linked to LP1 (DBCO-Valcit-pAB-hemiasterlin)
B15: Conjugate 5: 2900-A02 Y180/F404/k42/E161-LP1 (antibody, human IgG1, kappa)
heavy: B14 heavy
light: MDIQMTQSPSSLSASVGDRVTITCRASQDVNTAVAWYQQKPGAPKLLIYSASFLYSGVPSRFSGSRSGTDFTLTISSLQPEDFATYYCQQHYTTPPTFGQGTKVEIKRTVAAPSVFIFPPSDEQLKSGTASVVCLLNNFYPREAKVQWKVDNALQSGNSQSVTEQDSKDSTYSLSSTLTLSKADYEKHKVYACEVTHQGLSSPVTKSFNRGEC
modifications: pAMF at K42 and E161, each linked to LP1; pAMF at Y180 and F404 (EU), each linked to LP1 (DBCO-Valcit-pAB-hemiasterlin)
B16: Conjugate 6: 2900-A02 Y180/F241/F404/k42-LP1 (antibody, human IgG1, kappa)
heavy: MEVQLVESGGGLVQPGGSLRLSCAASGFTISGYIIHWVRQAPGKGLEWVGYIDPSNGYTYYADSVKGRFTISADTSKNTAYLQMNSLRAEDTAVYYCARDDQSLSSPFDYWGQGTLVTVSSASTKGPSVFPLAPSSKSTSGGTAALGCLVKDYFPEPVTVSWNSGALTSGVHTFPAVLQSSGLSLSSVVTVPSSSLGTQTYICNVNHKPSNTKVDKKVEPKSCDKTHTCPPCPAPELLGGPSVLFPPKPKDTLMISRTPEVTCVVVDVSHEDPEVKFNWYVDGVEVHNAKTKPREEQYNSTYRVVSVLTVLHQDWLNGKEYKCKVSNKALPAPIEKTISKAKGQPREPQVYTLPPSREEMTKNQVSLTCLVKGFYPSDIAVEWESNGQPENNYKTTPPVLDSDGSFLYSKLTVDKSRWQQGNVFSCSVMHEALHNHYTQKSLSLSPGK
light: B14 light
modifications: pAMF at K42 linked to LP1; pAMF at Y180, F241 and F404 (EU), each linked to LP1 (DBCO-Valcit-pAB-hemiasterlin)

Target: tissue factor reagent of the Tissue Factor Activity Assay Kit (Abcam #ab108906) (UniProt P13726 33-295, limits assumed)
Test: cell-based or functional assay

Row | FX conversion (% inhibition), 1000 nM antibody | Binder
1 | 0.21% | B1
2 | 1.72% | B2
3 | 17.7% | B3
4 | 0.23% | B4
5 | 6.38% | B5
6 | 9.78% | B6
7 | 18.7% | B7
8 | 15.6% | B8
9 | 5.23% | B9
10 | -0.11% | B10
11 | 20% | B11
12 | 12.4% | B12
13 | 16.4% | B13

Target: human tissue factor on cells (human, UniProt P13726 33-295)
Test: cell-based or functional assay

Row | Binder | cell killing EC50, HCC1954 (TF+++) | cell killing EC50, HCC1954, with 0.5 uM unconjugated mAb 39 | cell killing EC50, NCI-H292 (TF++++) | cell killing EC50, NCI-H292, with 0.5 uM unconjugated mAb 39 | cell killing EC50, NCI-H1975 (TF++) | cell killing EC50, NCI-H1975, with 0.5 uM unconjugated mAb 39 | cell killing Span, HCC1954 (TF+++) | cell killing Span, NCI-H292 (TF++++) | cell killing Span, NCI-H1975 (TF++) | cell killing EC50, HCC1954, with 0.5 uM unconjugated mAb 38
14 | B14 | 0.073 nM | > 100 nM | 0.048 nM | > 100 nM | ~7 nM | > 100 nM | 93% | 82% | 68% | –
15 | B15 | 0.08 nM | – | 0.045 nM | – | ~4.4 nM | – | 91% | 87% | 72% | > 100 nM
16 | B16 | 0.085 nM | – | 0.044 nM | – | ~5 nM | – | 93% | 86% | 71% | –

Same assay, conditions: not given

Row | Binder | cell killing EC50, NCI-H292, with 0.5 uM unconjugated mAb 38 | cell killing EC50, NCI-H1975, with 0.5 uM unconjugated mAb 38 | cell killing EC50, HCC1954, with 0.5 uM unconjugated mAb 40 | cell killing EC50, NCI-H292, with 0.5 uM unconjugated mAb 40 | cell killing EC50, NCI-H1975, with 0.5 uM unconjugated mAb 40
17 | B15 | > 100 nM | > 100 nM | – | – | –
18 | B16 | – | – | > 100 nM | > 100 nM | > 100 nM

Target: T2, human tissue factor (human TF, Lake Pharma) (human, UniProt P13726 33-251, limits assumed)
T2 construct: bought recombinant antigen; also called CD142
Test: Biacore SPR, single-point off-rate (100 nM antigen), antibody captured on anti-Fc
Protocol: (§1) Anti-Fc polyclonal antibodies were immobilized onto a CM4 chip (Cytiva #BR100534) using amine coupling chemistry (Human Antibody Capture Kit, Cytiva #BR100839). The immobilization steps were carried out at a flow rate of 25 μL/min in 1×HBS-EP+buffer (Cytiva #BR100669). The sensor surfaces were activated for 7 min with a mixture of N-hydroxysuccinimide (NHS, 0.05 M) and 1-ethyl-3-(3-dimethylaminopropyl)-carbodiimide (EDC, 0.2 M). The anti-Fc polyclonal antibodies were injected over all 4 flow cells at a concentration of 25 μg/mL in 10 mM sodium acetate, pH 4.5, for 7 min. Ethanolamine (1 M, pH 8.5) was injected for 7 min to block any remaining activated groups.
(§2) Off-rate and kinetic binding experiments were performed at 25° C. using 1×HBS-EP+buffer. Antibodies were injected over the anti-Fc surface at a concentration of 3 μg/mL for 12 seconds at a flow rate of 10 μL/min on flow cells 2, 3 and 4, followed by a buffer wash for 30 seconds at the same flow rate. Single point off-rate analysis was carried out using an antigen concentration of 100 nM. […] After capturing ligand (antibody) on the anti-Fc surface, the analyte (human TF, Lake Pharma; cynomolgus TF, Sino Bio #90885-C08H; mouse TF, R&D Systems #3178-PA) was bound for 180 seconds, followed by a 420 second dissociation phase at a flow rate of […]. Between each ligand capture and analyte binding cycle, regeneration was carried out using 2 injections of 10 mM glycine pH 2.0 for 30 seconds at 30 μL/min, followed by a 30 second buffer wash step.

Row | koff | Binder
19 | 0.00116 s⁻¹ | B1
20 | 0.00423 s⁻¹ | B2
21 | 0.000528 s⁻¹ | B3
22 | 0.00274 s⁻¹ | B4
23 | 0.00204 s⁻¹ | B5
24 | 0.00131 s⁻¹ | B6
25 | 0.000978 s⁻¹ | B7
26 | 0.000511 s⁻¹ | B8
27 | 0.00139 s⁻¹ | B9
28 | 0.00415 s⁻¹ | B10
29 | 0.000699 s⁻¹ | B11
30 | 0.000842 s⁻¹ | B12
31 | 0.00183 s⁻¹ | B13

Target: T1, cynomolgus tissue factor (cynomolgus …)
Test: as above
Protocol: as §1, §2

Row | koff | Binder
32 | 0.000761 s⁻¹ | B1
33 | 0.00184 s⁻¹ | B2
34 | 0.00182 s⁻¹ | B3
35 | 0.000696 s⁻¹ | B4
36 | 0.00115 s⁻¹ | B5
37 | 0.000665 s⁻¹ | B6
38 | 0.000689 s⁻¹ | B7
39 | 0.00113 s⁻¹ | B8
40 | 0.00215 s⁻¹ | B9
41 | 0.00141 s⁻¹ | B10
42 | 0.00195 s⁻¹ | B11
43 | 0.00257 s⁻¹ | B12
44 | 0.00118 s⁻¹ | B13
